Laboratory results taken from PMC7101311 (Nature Communications, 2020).

B2: PCNA (proliferative cell nuclear antigen) from Pyrococcus abyssi (natural protein, UniProt Q9UYX8 1-249, looked up)
chain: MPFEIVFEGAKEFAQLIETASRLIDEAAFKVTEEGISMRAMDPSRVVLIDLNLPASIFSKYEVDGEETIGVNMDHLKKVLKRGKAKETLILRKGEENFLEISLQGTATRTFKLPLIDVEEIEVDLPELPFTAKVVILGDVIKEAVKDASLVSDSMKFIAKENEFTMRAEGETQEVEVKLTLEDEGLLDIEVQEETKSAYGISYLSDMVKGLGKADEVTIKFGNEMPMQMEYYIRDEGRLIFLLAPRVEE
notes: PCNA, Pyrococcus abyssi; open reading frame optimized and synthesized, in pET28-a(+) with a thrombin-cleavable N-terminal 6xHis tag; PCNA as used in cryo-EM, crystallisation, BLI (analyte) and primer extension; also called sliding clamp; source: E. coli BL21-CodonPlus (DE3)-RIPL, purified (heat step, HisTrap, heparin, size exclusion)

Tests used:
[1] = target: primase (Saccharomyces cerevisiae) (UniProt P10363); conditions: cited from earlier work
Chain of primase (Saccharomyces cerevisiae) (P10363 whole entry, chain 1 of 2, the tested form may be a part): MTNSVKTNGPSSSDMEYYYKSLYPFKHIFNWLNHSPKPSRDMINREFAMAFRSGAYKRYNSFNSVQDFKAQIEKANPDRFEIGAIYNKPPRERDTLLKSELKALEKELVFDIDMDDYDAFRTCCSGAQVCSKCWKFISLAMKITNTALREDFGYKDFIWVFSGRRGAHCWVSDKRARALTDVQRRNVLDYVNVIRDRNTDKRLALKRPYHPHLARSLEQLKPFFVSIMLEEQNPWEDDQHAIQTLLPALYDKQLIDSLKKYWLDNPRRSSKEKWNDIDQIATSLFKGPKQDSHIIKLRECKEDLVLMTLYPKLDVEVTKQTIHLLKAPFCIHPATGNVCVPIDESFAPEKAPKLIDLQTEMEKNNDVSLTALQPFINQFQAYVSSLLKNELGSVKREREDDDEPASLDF
Chain of primase (Saccharomyces cerevisiae) (P20457 whole entry, chain 2 of 2, further chain, the tested form may be a part): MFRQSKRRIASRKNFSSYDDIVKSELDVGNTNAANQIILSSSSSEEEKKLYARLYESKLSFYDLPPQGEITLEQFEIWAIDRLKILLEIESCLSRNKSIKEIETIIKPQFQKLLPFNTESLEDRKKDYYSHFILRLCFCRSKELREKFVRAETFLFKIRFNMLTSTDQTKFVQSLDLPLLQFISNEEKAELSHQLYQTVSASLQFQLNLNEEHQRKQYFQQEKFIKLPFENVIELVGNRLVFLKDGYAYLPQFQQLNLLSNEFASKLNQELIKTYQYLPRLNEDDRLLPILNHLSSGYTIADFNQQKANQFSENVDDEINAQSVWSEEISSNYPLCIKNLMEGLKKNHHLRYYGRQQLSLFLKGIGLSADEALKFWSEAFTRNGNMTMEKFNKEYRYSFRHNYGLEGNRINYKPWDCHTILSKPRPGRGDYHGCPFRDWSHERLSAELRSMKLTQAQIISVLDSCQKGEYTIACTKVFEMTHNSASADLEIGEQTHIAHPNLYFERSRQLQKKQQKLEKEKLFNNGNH

[2] = target: B2; assay: BLI; Octet RED384; His-MBP-fused DP2 constructs captured on Ni-NTA biosensors (1.5 nm); PCNA or PriS-PriL(1–210) 31.25-2000 nM, 300 s, 25 °C, buffer E (20 mM Na-Hepes pH 8, 0.15 M NaCl) with 0.2 mg/mL BSA; steady-state fit; conditions: both partners purified
[3] = target: the molecule itself; assay: cryo-EM structure; 0.4 µM PolD (DP1 H451A), 1.2 µM PCNA, 0.7 µM primed DNA duplex (18-mer primer, 7-nt overhang), 0.1 mM dAMPCPP, buffer F (20 mM Na-Hepes pH 8, 0.01 mM NaCl, 2 mM Mg-acetate), 20 min at 4 °C; single-particle cryo-EM, 3.77 Å
[4] = target: T1, His6-tagged PCNA from Pyrococcus abyssi (Pyrococcus abyssi, UniProt Q9UYX8 1-249); assay: SPR; Biacore T200; ~2000 RU His-tagged PCNA and PriS-PriL(1–210) on an NTA chip, His-tagged MBP as reference; cPIP peptide 0-200 µM, 30 s at 30 µL/min, 25 °C, buffer E with 100 µM EDTA; steady-state fit; conditions: both partners purified
T1 construct: PCNA, Pyrococcus abyssi; open reading frame optimized and synthesized, in pET28-a(+) with a thrombin-cleavable N-terminal 6xHis tag; PCNA with its His tag kept, captured on the NTA chip for SPR; also called His-tagged PCNA; source: E. coli BL21-CodonPlus (DE3)-RIPL, purified (heat step, HisTrap, heparin, size exclusion); not shown: His6, N-terminal, kept
T1 sequence (looked up): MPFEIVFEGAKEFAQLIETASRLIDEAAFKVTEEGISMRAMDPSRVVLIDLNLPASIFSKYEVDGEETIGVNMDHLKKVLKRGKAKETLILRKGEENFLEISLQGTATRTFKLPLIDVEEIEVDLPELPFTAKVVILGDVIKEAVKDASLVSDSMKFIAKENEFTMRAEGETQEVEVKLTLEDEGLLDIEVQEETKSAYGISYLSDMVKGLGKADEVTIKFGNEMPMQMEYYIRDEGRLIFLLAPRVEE

[5] = target: PolD DP1 (small subunit, exonuclease-deficient);PolD DP2 (large catalytic subunit);PCNA (Pyrococcus abyssi;Pyrococcus …, UniProt Q9V2F3;PDB:6T8H_3;Q9UYX8 1-619;1-1275;1-249, H451A||); assay: cryo-EM structure (3.77 A); 2 mM Mg-acetate, 0.1 mM dAMPCPP (incoming nucleotide not seen in the map); Cryo-EM sample: 0.4 uM PolD, 1.2 uM PCNA, 0.7 uM DNA, 20 mM Na-HEPES pH 8, 0.01 mM NaCl (so in the source), 2 mM Mg-acetate, 0.1 mM dAMPCPP, 20 min at 4 C; conditions: protein: recombinant;recombinant;recombinant; copies: 1;1;3; 5' overhang 7 nt on template strand (18 bp duplex)
Chain of PolD DP1 (small subunit, exonuclease-deficient);PolD DP2 (large catalytic subunit);PCNA (Q9V2F3 whole entry H451A, one chain of several): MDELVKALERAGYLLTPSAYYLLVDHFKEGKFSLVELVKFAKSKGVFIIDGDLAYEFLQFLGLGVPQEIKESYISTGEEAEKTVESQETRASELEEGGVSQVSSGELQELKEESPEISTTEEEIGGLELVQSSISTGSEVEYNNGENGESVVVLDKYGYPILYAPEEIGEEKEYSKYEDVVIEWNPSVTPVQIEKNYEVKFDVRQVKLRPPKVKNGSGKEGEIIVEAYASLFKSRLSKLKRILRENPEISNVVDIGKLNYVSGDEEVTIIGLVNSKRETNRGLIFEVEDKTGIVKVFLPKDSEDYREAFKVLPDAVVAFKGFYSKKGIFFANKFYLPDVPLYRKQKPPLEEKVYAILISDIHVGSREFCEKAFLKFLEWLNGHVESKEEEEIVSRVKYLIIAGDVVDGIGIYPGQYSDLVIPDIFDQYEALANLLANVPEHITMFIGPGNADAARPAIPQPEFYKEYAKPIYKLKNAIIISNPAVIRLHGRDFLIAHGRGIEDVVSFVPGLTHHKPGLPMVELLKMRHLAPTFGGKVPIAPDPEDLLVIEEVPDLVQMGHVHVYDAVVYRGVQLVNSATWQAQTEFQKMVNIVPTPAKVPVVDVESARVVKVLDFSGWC

DNA polymerase alpha C-terminus (from UniProt P13382)
Kd [1]: 245 nM

B1: MBP–iPIP-cPIP fusion (DP2:1196–1270) (domain or fragment, Pyrococcus abyssi, UniProt Q9V2F4 1381-1455, looked up)
chain: ETQLTLIVNPNDICQRLVMARTGEVNKSGLLENLSNGSKKTEKAEKAEKPRKKSDEKPKKKRVISLEEFFSRKSK
notes: C-terminal region of PolD DP2, Pyrococcus abyssi, residues 1196-1270, holding iPIP and cPIP; pIVEX His-MBP-TEV plasmid; TEV-cleavable N-terminal His6-MBP tag, kept for capture on Ni-NTA biosensors; also called His-MBP-fused DP2 construct; source: E. coli BL21-CodonPlus (DE3)-RIPL, purified (HisTrap, heparin, size exclusion; no heat step); not shown: His6, N-terminal, kept; MBP, N-terminal, kept
Kd [2]: 472 ± 120 nM

B2
stoichiometry N [3]: 3

B3: cPIP peptide (12 amino-acid peptide mimicking the DP2 C-terminal PIP-box) (peptide)
peptide: KKRVISLEEFFS
notes: C-terminal PIP-box (cPIP) of PolD DP2, Pyrococcus abyssi; limits worked out from the printed residues V1258, I1259, L1261, F1264; also called canonical PIP-box; source: synthetic peptide (Smart Bioscience)
Kd [4]: 49000 ± 4000 nM

B4: primer-template duplex (18-mer primer / 25-mer template) (dsDNA)
DNA 1: CGCCGGGCCGAGCCGTGC
DNA 2: AGGTCGTGCACGGCTCGGCCCGGCG
binding result [5]: binds
